Reference: the supplement of paper PMC9170038

Tests used:
[1] = tested on: MS2 coat protein; assay: apparent KD of MS2 coat protein, switch ON state; designed switch direction (-1 OFF switch, 1 ON switch): -1; higher = weaker reporter binding; details: FMN input: 0 or 200 uM; Eterna round: R93 (includes R88 designs)
Summary of the method: (§1)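 In 100 mM Tris-HCl pH 7.5 with 80 mM KCl and 4 mM MgCl2, and without or with constant ligand, SNAP-549-labelled MS2 coat protein was titrated in twofold steps from 0.7 or 1.5 nM to 3 µM. Per-step times went from 0.8–1.5 h down to 10–20 min. The RNA switches were transcribed on-chip from Illumina sequencing clusters, and apparent KD is the per-design median of normalised cluster binding-curve fits.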

[2] = tested on: MS2 coat protein; assay: apparent KD of MS2 coat protein, switch OFF state (with FMN for OFF switches, without FMN for ON switches); designed switch direction (-1 OFF switch, 1 ON switch): -1; higher = weaker reporter binding; details: FMN input: 0 or 200 uM; Eterna round: R93 (includes R88 designs)
Summary of the method: as §1

| Sequence | apparent KD of MS2 coat protein [1] [nM] | apparent KD of MS2 coat protein [2] [nM] |
| --- | --- | --- |
| AGCUAGUCAGGAUAUACGAACAUGUCAAAAGACGAGAAGGGACAUGAGGAUCACCCAUGUAGAAGGGACUAGCA [Diamond 21] | 87.5 | 198 |
| AGCUAGUCAGGAUAUACGAACAUGUCAAAAGACGUGAGAGAACAUGAGGAUCACCCAUGUAGAAGGGACUAGCA [Mat - Exclusion 2 - JL-Eli mod - D47] | 18.7 | 13.1 |
| AGCUAGUCAGGAUAUACGAGAAUGAAAGAAGACGUGAAGGGACAUGAGGAUCACCCAUGUAGAAGGGACUAGCA [Diamond 25] | 36.1 | 80.3 |
| AGCUAGUCAGGAUAUGCGAAUAUGUCAAAAGACGUGAAGGGACAUGAGGAUCACCCAUGUAGAAGGGACUAGCA [Diamond 3] | 32.4 | 36.5 |
| AGCUUCAGAGGAUAUACUUGAGUGAUAAAAGUCUGAUAACUACAUGAGGAUCACCCAUGUAGAAGGCUGUAGCA [Ex2 Design 168: Sub-opt 32] | 19.1 | 46 |
| AGGAAACAUGAGGAUCACCCAUGUAAGGAUAUCAGAAAGAAAAGAAAAGAAAGAAGAAUGAGAAGGUACAAGAA [Horus Bird] | 29.1 | 34 |
| AGGAAACAUGAGGAUCACCCAUGUUAGGAUAUGAACGAAAAUAAAUAAAAAUAAAAGUUCAGAAGGGACAAAAA [66%, Wbt, 19] | 38.4 | 39.6 |
| AGGGAACAUGAGGAUCACCCAUGUGAGGAUAUACAAAAGAAAAGAAAAGAAAGAAGAAGUAGAAGGUACAAGAA [Neferka] | 23.9 | 43.9 |
| AGGGAACAUGAGGAUCACCCAUGUGAGGAUAUUCAAAAGAAAAGAAAAGAAAGAAGAAGAAGAAGGUACAAGAA [Neferkare Pepi II] | 42.9 | 36.9 |
| AGGUAGUCAGGAUAUACAAACAUGUCAAAAGACGUGAAAAAACAUGAGGAUCACCCAUGUAGAAGGGACUACCA [Mat - Exclusion 2 - JL mod - D21] | 18 | 16.3 |
| AGUCAGAGAGGAUAUACAUGGGAAAAAAAAGUAAGAUCCCUACAUGAGGAUCACCCAUGUAGAAGGCUCUGACA [Ex2 Design 139: Sub-opt 3] | 22.6 | 20.2 |
| AGUCAUACAGGAUAUACAUGAGGAUCACCCAUGUAAAUCCUAAAAAGAAAAAACUCAUGUAGAAGGGUAUGACA [EX3 223: Super Stable 23] | 16.1 | 39.2 |
| AGUCGGCGAGGAUAUACAUGAGGAUCACCCAUGUGAGAGAAAAAAGUGAGAAAGAAAUGUAGAAGGCGCUGACA [JL Lego Mod 1] | 90.8 | 36.8 |
| AGUGAGUGAGGAUAUGACUGAAGAAUAAAAGAAAUAACAAGUCAGAAGGCACAUGAGGAUCACCCAUGUACACA [May 60] | 28.8 | 25.6 |
| AGUUAGCGAGGAUAUACAUGAGGAUCACCCAUGUGAGAGAAAAAAGUGAGAAAGAAAAGUAGAAGGCGCUAACA [Moding Norbert Elias (73)] | 42.3 | 119 |
| AGUUGGCGAGGAUAUACAUGAGGAUCACCCAUGUAAGAGUAAAGAGUGAGAAAGAGAAGUAGAAGGCGCUGACA [Ruby 57] | 53 | 247 |
| AGUUGGCGAGGAUAUACAUGAGGAUCACCCAUGUGAGAGAAAAAAGUGAGAAAGAAAAGUAGAAGGCGCUCACA [JL Lego Mod 12] | 62.1 | 49.7 |
| AUAGGCCUAGGAUAUACAUGAGGAUCACCCAUGUUAAUAUUUCAAACAUGAUAAACGUGUAGAAGGAGGAAUAA [JR_Exc003_Sub303] | 41.7 | 50.8 |
| AUAGGUCAAGGAUAUACAUGAGGAUCACCCAUGUAAAUAACUCCAUAAAACUCCACAAGUAGAAGGUGAAAUAA [JR_Exc003_Sub202] | 17.9 | 15.8 |
| AUAGUACAUGAGGAUCACCCAUGUCAGGAUAUUGGAUAUGACAUGAAAAAAAUGUUAACGAGAAGGGACUAUAA [EX1 Malc#17] | 58.6 | 80.7 |
| AUCAUGUUAGGAUAUUAAAGAAAAGAAAAGAAAGAAAAGAAUAAGAAGGAACAUGAGGAUCACCCAUGUAAGAA [EteRNA is fun!] | 30.4 | 29.7 |
| AUGUAGGGAGGAUAUACAUAGAUACAGAUUCGUGUAGAACUACAUGAGGAUCACCCAUGUAGAAGGCCCUAAAA [Mat - Same state - Mayanna Mod - D124] | 20.1 | 43.1 |
| CAAAAACAUGAGGAUCACCCAUGUGAGGAUAUACGAAAGUAGAAGGCACUAAAACAAAACAGAAGGACAAAACA [Meechl Ex1 R2 m3] | 17.9 | 24.6 |
